± gives the uncertainty stated by the source.
Test: protein stability index of a GFP-peptide fusion (yeast GPS) (PSI 1-4); higher = more stable; sorted into four equal gates, so the index is relative within each strain
Summary of the method: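 Plasmids isolated from each sorting gate were PCR-amplified and Illumina-sequenced, and barcodes assigned the reads to strains. The gates, four of equal size, were set by GFP/Cherry fluorescence ratio on mid-log cultures in leucine-free medium. These cultures were yeast carrying a pooled library of tiled 17-residue yeast protein peptides fused downstream of GFP on a plasmid that also expresses Cherry. The protein stability index is the sum of every gate's read frequency times its gate number.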

| Sequence | protein stability index (pdr5∆) | protein stability index (ubr1∆) | protein stability index (doa10∆) | protein stability index (san1∆) |
| --- | --- | --- | --- | --- |
| SADCELLGIDATVPSGR [RPO31] | 3.06 ± 0.18 | 3.32 ± 0.081 | – | – |
| AKFRLILIESRIHRLAR [RPS13] | 1.97 ± 0.18 | 2.5 ± 0.15 | 1.52 ± 0.099 | 1.7 ± 0.18 |
| SSTLGIDLEDIKEELTK [PCI8] | 3.1 ± 0.094 | 3.02 ± 0.1 | 2.93 ± 0.091 | 3.17 ± 0.1 |
| EKAKEMIRLLGSESDDS [ECM29] | 2.13 ± 0.11 | 1.53 ± 0.14 | 2.51 ± 0.2 | – |
| SKVVDDMPSLRLIDLSG [GRR1] | 2.91 ± 0.081 | 2.71 ± 0.078 | 2.8 ± 0.076 | 2.72 ± 0.056 |
| TVNEPQMSDKHATVVPP [SRB7] | 2.83 ± 0.11 | 3.07 ± 0.092 | 2.73 ± 0.12 | 2.89 ± 0.093 |
| GCVSYSPAALKQLASLK [YMR153W/NUP53] | 2.22 ± 0.07 | 2.62 ± 0.078 | 1.7 ± 0.066 | 2.08 ± 0.12 |
| QREDKLKSHYYQTCKNS [SMC2] | 1.25 ± 0.057 | 1.42 ± 0.054 | 1.24 ± 0.073 | 1.63 ± 0.071 |
| GKNVINRERFISKLFLR [SMD2] | 1.69 ± 0.067 | 2.68 ± 0.12 | 2.85 ± 0.093 | 1.73 ± 0.14 |
| TNSHLPAGKQVEISLVN [FAS1] | 3.37 ± 0.13 | 3.12 ± 0.084 | 3.48 ± 0.14 | 3.36 ± 0.069 |
| DYNKKQDRIQDVKLVLA [MED1] | 2.83 ± 0.074 | 2.28 ± 0.072 | 2.69 ± 0.078 | 2.28 ± 0.11 |
| DRKNRAPPQRPRFNRDN [RPS26B] | 1.4 ± 0.15 | 3.04 ± 0.16 | 1.87 ± 0.2 | – |
| KLYTKELSVTGSAINHH [YMR129W/POM152] | 1.35 ± 0.077 | 1.49 ± 0.06 | 1.22 ± 0.12 | 1.46 ± 0.23 |
| IRIYFTEKDDNKTNNED [NUT1] | 2.95 ± 0.071 | 2.87 ± 0.074 | 2.82 ± 0.1 | 2.84 ± 0.13 |
| MFNPLHESYCLPMDTNL [YMR129W/POM152] | 2.83 ± 0.055 | 2.36 ± 0.056 | 2.39 ± 0.059 | 2.75 ± 0.058 |
| NEDDALIYGISDEERDD [AAR2] | 3.53 ± 0.13 | 3.2 ± 0.12 | 3.29 ± 0.12 | 3.62 ± 0.066 |
| NNEMKSLQRSKSSFVKE [SMC1] | 3.25 ± 0.13 | 3.28 ± 0.073 | – | 3.03 ± 0.11 |
| NNKKVVGTAIDSILNYA [ECM29] | 2.75 ± 0.12 | 3.06 ± 0.083 | 2.4 ± 0.21 | – |
| VLDSYTPSTNEPYARVS [FAS1] | 2.76 ± 0.053 | 3.01 ± 0.044 | 2.94 ± 0.054 | 2.71 ± 0.066 |
| STSSGKVSYAVKKPQKS [SNM1] | 2.76 ± 0.1 | 3.02 ± 0.16 | 2.04 ± 0.13 | 2.01 ± 0.17 |
| NGNTSSKTVVTLSEPVQ [FAS1] | 3.14 ± 0.066 | 2.96 ± 0.055 | 2.91 ± 0.072 | 2.96 ± 0.059 |
| KNDNGGKMNNEVSTSTS [SWI3] | 3.14 ± 0.1 | 2.65 ± 0.075 | 3.29 ± 0.08 | 3.06 ± 0.053 |
| CDDESGDNEYITLRTSG [MCD1] | 3.29 ± 0.099 | 3.47 ± 0.061 | 3.29 ± 0.16 | 3.04 ± 0.072 |
| PNLIEKMVAKGLNDLVE [BRR2] | 2.82 ± 0.21 | 2.99 ± 0.18 | 2.51 ± 0.17 | – |
| IRLSKILEDDFAVALKN [CDC53] | 3.16 ± 0.14 | 3.04 ± 0.08 | 3.19 ± 0.15 | 3.04 ± 0.072 |
| VISFGQPKLNPMASSSS [SWI1] | 1.92 ± 0.074 | 2.13 ± 0.056 | 2.15 ± 0.06 | 2.61 ± 0.11 |
| RKLMEMENILQRCKSNA [YIL149C/MLP2] | 2.39 ± 0.086 | 1.38 ± 0.095 | 2.04 ± 0.072 | 2 ± 0.096 |
